The target of assay [1] is T1, recombinant MDM2 (amino acid residues 1-188) GST fusion protein (UniProt Q00987 1-188).
T1 construct: range 1-188; Expressed in E. coli BL21(DE3) from pGEX-4-T-1 and eluted as a GST fusion; GST is placed N-terminally by the usual layout of the vector; not shown: glutathione S-transferase tag encoded by pGEX-4-T-1
The experiment in a line: fluorescence polarization assay with recombinant GST-MDM2 (1-188). As to the method:
(§1) Kd's and Kᵢ's were calculated by fitting the data to a single-site binding mode with variable slope (Y=Bottom+(Top−Bottom)/(1+10̂((LogEC50-X)*HillSlope))) using […] PRISM software.

Assay [2] has as its target T2, recombinant MDMX (amino acid residues 1-185) GST fusion protein (UniProt O15151 1-185).
T2 construct: range 1-185; Expressed in E. coli BL21(DE3) from pGEX-4-T-1 and eluted as a GST fusion; GST is placed N-terminally by the usual layout of the vector; also called MDMX-GST; not shown: glutathione S-transferase tag encoded by pGEX-4-T-1
T2 sequence (looked up): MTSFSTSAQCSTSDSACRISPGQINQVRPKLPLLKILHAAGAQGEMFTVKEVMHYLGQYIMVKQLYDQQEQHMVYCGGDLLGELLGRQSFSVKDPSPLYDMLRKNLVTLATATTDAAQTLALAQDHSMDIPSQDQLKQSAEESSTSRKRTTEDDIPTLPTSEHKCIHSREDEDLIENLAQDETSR
The experiment in a line: fluorescence polarization assay with recombinant GST-MDMX (1-185). As to the method: as §1
(In general: Polarisation of emitted light reports the rotation of a fluorescent probe.)

T1 sequence (Q00987 1-188): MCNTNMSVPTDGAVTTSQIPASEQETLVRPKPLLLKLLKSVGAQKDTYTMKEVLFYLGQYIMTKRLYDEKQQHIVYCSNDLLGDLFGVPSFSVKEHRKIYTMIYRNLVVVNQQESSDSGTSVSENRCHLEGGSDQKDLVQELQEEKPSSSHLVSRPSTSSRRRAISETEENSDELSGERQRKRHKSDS

As for H-GSGSSQETASDLAKLAPEN-OH, the binding result in assay [1] and in assay [2] was “no binding” each time.

The values are drawn from patent US20120115880A1 (ST JUDE CHILDREN S RESEARCH HOSPITAL, published 2012).
